Assay results taken from article PMC12461897 (mAbs, 2025).
Numbering of substitutions follows the chain as printed.

B1: MUR35 Fab (anti-C18-MHC TCR-mimic antibody clone MUR35) (Fab, V domains shown)
VH: EVQLQQSGPELVKPGASVKISCKASGYTFTDHFMNWVRQSHGKSLEWIGDINPNNGGTSYNQKFKGKATLTVDKSSSTAFMEVRSLTSDDSAVYYCARRGYYGSFDYWGQGTTLTVSS
VL: EIVMTQSPATLSLSPGERATLSCRASQGVSSSYFSWYQQTPGQAPRLLISGASTRATGIPARFSGSGSGTDFTLTISSLQPEDFAVYYCQQDYNLPYTFGQGTKLEIK
B2: MUR14 Fab (anti-C18-MHC antibody clone MUR14) (Fab, V domains shown)
VH: EVQLQQSGPELVKPGASVKISCKASGYTFTDYFMNWVKQSHGKSLEWIGDINPNNGGTSYNQKFKGKATLTVDKSSSTAYMELRSLTSEDSAVYYCARGLYDGYYVGFAYWGQGTLVTVSA
VL: B1 VL with G28S, F34L, T40K, S50Y, I59L, Q90H

Molecular target: C18-V peptide presented by HLA-A*02:01 on peptide-pulsed T2 cells (Homo sapiens HLA-A*02:01 and B2M (T2 …))
Assay: flow cytometry on cells

Row | Binder | binding result
1 | B1 | binds
2 | B2 | binds
